Assay results reported in patent publication US20110206658A1 (published 2011).

How the values were obtained:
human CD79b (TAHO5) = target: T1, human CD79b (TAHO5) (human, UniProt P40259 29-229); test: cell-based or functional assay
T1 sequence: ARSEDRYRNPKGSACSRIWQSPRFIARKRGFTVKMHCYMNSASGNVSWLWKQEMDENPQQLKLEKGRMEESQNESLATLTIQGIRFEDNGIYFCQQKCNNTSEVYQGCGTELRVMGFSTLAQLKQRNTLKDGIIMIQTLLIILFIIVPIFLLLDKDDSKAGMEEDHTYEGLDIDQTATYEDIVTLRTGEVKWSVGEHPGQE

[1] = target: T2, cynomolgus CD79b (TAHO40) (cynomolgus monkey); test: cell-based or functional assay
T2 chain: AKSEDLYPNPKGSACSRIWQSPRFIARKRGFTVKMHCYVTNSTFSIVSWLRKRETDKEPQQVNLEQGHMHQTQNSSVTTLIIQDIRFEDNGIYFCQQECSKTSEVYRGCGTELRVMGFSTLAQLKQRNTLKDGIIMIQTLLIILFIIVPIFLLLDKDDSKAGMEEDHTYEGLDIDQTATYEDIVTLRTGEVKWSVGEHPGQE

B1: anti-cyno CD79b (10D10)-SMCC-DM1 (antibody, V domains shown)
VH: EVQLQESGPGLVKPSQSLSLTCTVTGYSITSDYAWNWIRQFPGNKLEWMGNIWYSGSTTYNPSLKSRISITRDTSKNQFFLQLNSVTSEDTATYYCSRMDFWGQGTTLTVSS
VL: DIVLTQSPPSLAVSLGQRATISCRASESVDSYGKTFMHWHQQKPGQPPKLLIYRVSNLESGIPARFSGSGSRTDFTLTINPVEADDVATYYCQQSNEDPFTFGGGTKLEIKR
modifications: DM1 linked through SMCC to the epsilon-amino group of lysines; drug to antibody ratio typically 3 to 4
- IC50 of tumor cell killing (CellTiter-Glo), non-transfected BJAB cells (human CD79b (TAHO5)): 10 nM
- IC50 of tumor cell killing (CellTiter-Glo), BJAB-cyno CD79b cells [1]: 0.33 nM

B2: anti-cyno CD79b (10D10)-MC-MMAF (antibody, V domains shown)
VH: EVQLQESGPGLVKPSQSLSLTCTVTGYSITSDYAWNWIRQFPGNKLEWMGNIWYSGSTTYNPSLKSRISITRDTSKNQFFLQLNSVTSEDTATYYCSRMDFWGQGTTLTVSS
VL: DIVLTQSPPSLAVSLGQRATISCRASESVDSYGKTFMHWHQQKPGQPPKLLIYRVSNLESGIPARFSGSGSRTDFTLTINPVEADDVATYYCQQSNEDPFTFGGGTKLEIKR
modifications: MMAF linked through the cysteine by the maleimidocaproyl (MC) linker; sites and load not stated
- IC50 of tumor cell killing (CellTiter-Glo), non-transfected BJAB cells (human CD79b (TAHO5)): 694 nM
- IC50 of tumor cell killing (CellTiter-Glo), BJAB-cyno CD79b cells [1]: 0.07 nM
